{"source": "paper PMC6914368", "about": "(Nature, 2019)", "molecules": {"B1": {"name": "EccD3 with N-terminal Strep-tag II (natural protein)", "chain": "MSENTVMPIVRVAVLAAGDDGGRLTEMALPSELPLREILPAVQRIVQPARENDGAADPAAAPNPVRLSLAPIGGAPFSLDATLDTVGVVDGDLLALQAVPSGPPAPRIVEDIADAAVIFSEARRRQWGPTHIARGAALALIGLILVGTGLSVAHRVITGDLLGQFIVSGIALATVIAALAVRNRSAVLATSLAVTALVPVAAAFALGVPGDFGAPNVLLAAAGVAAWSLISMAGSPDDRGIAVFTATAVTGVGVLLVAGAASLWVISSDVIGCALVLLGLIVTVQAAQLSAMWARFPLPVIPAPGDPTPAARPLSVLADLPRRVRVSQAHQTGVIAAGVLLGVAGSVALVSSANASPWAWYIVVAAAAGAALRARVWDSAACKAWLLGHSYLLAVALLVAFVIGDRYQAALWALAALAVLVLVWIVAALNPKIASPDTYSLPMRRMVGFLATGLDASLIPVMALLVGLFSLVLDR"}, "B2": {"name": "EccB3 (natural protein)", "chain": "MTGPVNPDDRRSFSSRTPVNENPDGVQYRRGFVTRHQVSGWRFVMRRIASGVALHDTRMLVDPLRTQSRAVLTGALILVTGLVGCFIFSLFRPGGVPGNNAILADRSTSALYVRVGEQLHPVLNLTSARLISGSPDNPTMVKTSEIDKFPRGNLLGIPGAPERMVQNAATDAEWTVCDAVGGANPGVTVIAGPLGADGERAAPLPPDHAVLVHSDAEPNPGDWLLWDGKRSPIDLADRAVTDALGLGGQALAPRPIAAGLFNAVPAAPALTAPVIPDAGAAPQFELSLPVPVGAVVVAYDADNTARYYAVLSDGLQPISPVLAAILRNTDSHGFAQPPRLGPDEVARTPMSRGLDTSAYPDNPVTLVEASAHPVTCAHWTKPSDAAESSLSVLSGAVLPLAEGLHTVDLVGAGAGGAANRVALTPGTGYFVQTVGAEPGSPTAGSMFWVSDTGVRYGIDTAEDDKVVAALGLSTSPLPVPWSVLSQFAAGPALSRGDALVAHDAVSTNPNSARMEASR"}, "B3": {"name": "EccD3 (untagged, from the ESX-3 gene cluster plasmid pMyNT:ESX-3) (natural protein)", "chain": "B1 chain"}, "B4": {"name": "EccE3 (natural protein)", "chain": "MTARIALASLFVVAAVLAQPWQTTTQRWVLGVSIAAVIVLLAWWKGMFLTTRIGRALAMVRRNRAEDTVETDAHRATVVLRVDPAAPAQLPVVVGYLDRYGITCDKVRITHRDAGGTRRSWISLTVDAVDNLAALQARSARIPLQDTTEVVGRRLADHLREQGWTVTVVEGVDTPLPVSGKETWRGVADDAGVVAAYRVKVDDRLDEVLAEIGHLPAEETWTALEFTGSPAEPLLTVCAAVRTSDRPAAKAPLAGLTPARGRHRPALAALNPLSTERLDGTAVPLPAVVRTSVKGSVEHEAAQEAGHPA"}}, "key": {"[1]": {"target": "ESX-3 core complex protomer EccB3:EccC3:EccD3:EccE3, from pMyNT:ESX-3 (whole gene cluster) (Mycobacterium smegmatis) (UniProt A0QQ39)", "experiment": "SEC"}, "[2]": {"target": "EccB3:EccC3:EccD3 subcomplex (Mycobacterium smegmatis) (UniProt A0QQ39)", "experiment": "SEC"}, "[3]": {"target": "ESX-3 core complex protomer EccB3:EccC3:EccD3:EccE3 (1:1:2:1), from pMyNT:Mini (Mycobacterium smegmatis) (UniProt A0QQ39)", "experiment": "cryo-EM structure"}, "[4]": {"target": "T1, EccC3 with C-terminal His-tag (Mycobacterium smegmatis, UniProt A0QQ40 1-1325)", "T1 sequence": "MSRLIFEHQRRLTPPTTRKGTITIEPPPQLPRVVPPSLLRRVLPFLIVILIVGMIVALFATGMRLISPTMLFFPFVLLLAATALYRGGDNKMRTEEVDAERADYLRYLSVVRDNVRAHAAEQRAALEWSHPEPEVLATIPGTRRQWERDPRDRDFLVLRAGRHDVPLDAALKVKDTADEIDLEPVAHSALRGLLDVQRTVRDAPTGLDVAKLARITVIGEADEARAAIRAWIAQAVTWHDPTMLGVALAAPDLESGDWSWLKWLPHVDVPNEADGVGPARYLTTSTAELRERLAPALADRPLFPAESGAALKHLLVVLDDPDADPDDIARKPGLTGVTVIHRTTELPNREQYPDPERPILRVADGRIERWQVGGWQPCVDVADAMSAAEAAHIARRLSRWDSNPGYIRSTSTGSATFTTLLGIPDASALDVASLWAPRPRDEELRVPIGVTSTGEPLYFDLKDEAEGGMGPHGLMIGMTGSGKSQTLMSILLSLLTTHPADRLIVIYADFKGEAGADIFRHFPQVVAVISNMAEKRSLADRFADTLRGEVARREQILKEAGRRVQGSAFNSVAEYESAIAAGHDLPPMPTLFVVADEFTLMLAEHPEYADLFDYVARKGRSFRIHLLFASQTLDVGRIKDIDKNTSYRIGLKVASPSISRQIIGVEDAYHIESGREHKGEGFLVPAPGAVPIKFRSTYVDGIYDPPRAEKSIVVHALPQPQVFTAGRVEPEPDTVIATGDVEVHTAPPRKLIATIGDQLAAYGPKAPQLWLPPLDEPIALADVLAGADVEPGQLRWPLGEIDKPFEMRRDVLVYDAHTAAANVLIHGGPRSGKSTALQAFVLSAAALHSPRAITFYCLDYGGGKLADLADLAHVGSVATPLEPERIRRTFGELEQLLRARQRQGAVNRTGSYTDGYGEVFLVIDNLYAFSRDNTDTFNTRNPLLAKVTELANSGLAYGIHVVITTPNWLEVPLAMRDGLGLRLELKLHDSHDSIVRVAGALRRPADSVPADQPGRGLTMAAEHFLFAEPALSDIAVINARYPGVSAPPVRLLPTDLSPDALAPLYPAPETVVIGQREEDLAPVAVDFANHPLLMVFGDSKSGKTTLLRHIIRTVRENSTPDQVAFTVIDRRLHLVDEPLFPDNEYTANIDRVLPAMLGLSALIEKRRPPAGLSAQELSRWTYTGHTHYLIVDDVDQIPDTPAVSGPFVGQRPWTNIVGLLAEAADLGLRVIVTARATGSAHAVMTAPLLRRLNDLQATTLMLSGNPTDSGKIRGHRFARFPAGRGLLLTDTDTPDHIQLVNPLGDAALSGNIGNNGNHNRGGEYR", "experiment": "densitometry of SDS-PAGE bands"}, "[5]": {"target": "the molecule itself", "experiment": "SEC-MALS"}, "[6]": {"target": "the molecule itself", "experiment": "cryo-EM structure"}}, "data": [{"molecule": "ESX-3 core complex protomer EccB3:EccC3:EccD3:EccE3, from pMyNT:ESX-3 (whole gene cluster) (from UniProt A0QQ39;A0QQ40;A0QQ46;A0QQ48)", "values": [{"measurement": "stoichiometry N", "setting": "[1]", "result": 2}]}, {"molecule": "EccB3:EccC3:EccD3 subcomplex (from UniProt A0QQ39;A0QQ40;A0QQ46)", "values": [{"measurement": "stoichiometry N", "setting": "[2]", "result": 2}]}, {"molecule": "ESX-3 core complex protomer EccB3:EccC3:EccD3:EccE3 (1:1:2:1), from pMyNT:Mini (from UniProt A0QQ39;A0QQ40;A0QQ46;A0QQ48)", "values": [{"measurement": "stoichiometry N", "setting": "[3]", "result": 2}]}, {"molecule": "B1", "values": [{"measurement": "stoichiometry N", "setting": "[4]", "result": 2}, {"measurement": "stoichiometry N", "setting": "[5]", "result": 2}]}, {"molecule": "B2", "values": [{"measurement": "stoichiometry N", "setting": "[6]", "result": 2}, {"measurement": "stoichiometry N", "setting": "[4]", "result": 1}]}, {"molecule": "B3", "values": [{"measurement": "stoichiometry N", "setting": "[4]", "result": 2}]}, {"molecule": "B4", "values": [{"measurement": "stoichiometry N", "setting": "[4]", "result": 1}]}]}
